Where no end group is shown, it is not given here. The star is where a group is joined. Biotin = O=C1N[C@H]2[C@H](CS[C@H]2CCCCC(=O)*)N1; Ahx = NCCCCCC(=O)O
Assays:
[1] = molecular target: T1, PPARδ (Gal4-PPARδ LBD, transactivation) (Homo sapiens, UniProt Q03181); experiment: Gal4-LBD luciferase transactivation, BHK21 cells; type: cell-based; conditions: agonist; […] h, […] °C; unreliable
T1 construct: gene PPARD
T1 sequence (Q03181 139-441): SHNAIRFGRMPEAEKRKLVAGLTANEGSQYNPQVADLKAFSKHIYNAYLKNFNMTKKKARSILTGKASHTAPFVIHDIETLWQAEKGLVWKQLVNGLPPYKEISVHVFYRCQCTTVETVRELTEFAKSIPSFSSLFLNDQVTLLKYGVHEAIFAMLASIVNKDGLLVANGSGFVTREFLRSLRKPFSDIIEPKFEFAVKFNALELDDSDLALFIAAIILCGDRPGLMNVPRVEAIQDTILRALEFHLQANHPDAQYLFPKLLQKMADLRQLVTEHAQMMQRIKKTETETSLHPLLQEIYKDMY

[2] = molecular target: T2, PPARγ (Gal4-PPARγ LBD, transactivation) (Mus musculus, UniProt P37238); experiment: Gal4-LBD luciferase transactivation, BHK21 cells; type: cell-based; conditions: agonist; […] h, […] °C; unreliable
T2 construct: gene Pparg
T2 sequence (P37238 204-505): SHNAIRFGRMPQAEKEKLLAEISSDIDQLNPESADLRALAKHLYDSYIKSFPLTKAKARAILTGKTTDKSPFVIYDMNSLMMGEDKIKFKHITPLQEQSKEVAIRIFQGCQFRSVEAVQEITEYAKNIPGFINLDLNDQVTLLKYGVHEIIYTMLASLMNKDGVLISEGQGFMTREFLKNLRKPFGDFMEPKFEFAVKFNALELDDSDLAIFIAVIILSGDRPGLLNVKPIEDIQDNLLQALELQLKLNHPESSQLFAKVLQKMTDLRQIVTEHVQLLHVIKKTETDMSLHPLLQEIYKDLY

[3] = molecular target: T3, GST–PPARα (ligand binding domain, TR-FRET) (Homo sapiens, UniProt Q07869); experiment: TR-FRET cofactor peptide recruitment
T3 construct: gene PPARA
T3 sequence (Q07869 196-468 limits assumed): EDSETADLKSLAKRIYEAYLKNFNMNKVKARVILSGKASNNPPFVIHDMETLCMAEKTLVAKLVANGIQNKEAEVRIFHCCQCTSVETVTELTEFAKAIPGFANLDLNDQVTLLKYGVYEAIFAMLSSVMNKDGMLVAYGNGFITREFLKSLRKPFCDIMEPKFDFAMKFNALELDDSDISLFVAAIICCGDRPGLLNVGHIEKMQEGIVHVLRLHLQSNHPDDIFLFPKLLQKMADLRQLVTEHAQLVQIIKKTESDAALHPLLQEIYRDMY

[4] = molecular target: T4, GST–PPARγ fusion protein (purified ligand binding domain of PPARγ); experiment: FRET or BRET; homogeneous TR-FRET as a1, 12-concentration dose–response of farglitazar; the EC50 is of the compound; delta ratio in % of the reference compound edaglitazone at 10 μM; conditions: both partners purified
T4 chain: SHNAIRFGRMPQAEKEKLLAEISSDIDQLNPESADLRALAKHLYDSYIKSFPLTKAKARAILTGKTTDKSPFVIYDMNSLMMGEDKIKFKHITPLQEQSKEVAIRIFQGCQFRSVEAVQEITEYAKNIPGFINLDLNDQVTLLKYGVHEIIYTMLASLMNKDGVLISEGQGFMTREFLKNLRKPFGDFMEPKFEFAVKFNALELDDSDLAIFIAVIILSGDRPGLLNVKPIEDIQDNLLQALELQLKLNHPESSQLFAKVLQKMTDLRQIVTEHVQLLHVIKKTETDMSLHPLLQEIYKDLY

[5] = molecular target: T4, GST–PPARγ fusion protein (purified …); experiment: FRET or BRET; homogeneous TR-FRET as a1, 12-concentration dose–response of aleglitazar; the EC50 is of the compound; delta ratio in % of the reference compound at 10 μM (RO4899100 for PPARα, edaglitazone for PPARγ); conditions: both partners purified
[6] = molecular target: T4, GST–PPARγ fusion protein (purified …); experiment: FRET or BRET; homogeneous TR-FRET as a1, 12-concentration dose–response of muraglitazar; the EC50 is of the compound; delta ratio in % of the reference compound at 10 μM (RO4899100 for PPARα, edaglitazone for PPARγ); conditions: both partners purified
[7] = molecular target: T4, GST–PPARγ fusion protein (purified …); experiment: FRET or BRET; homogeneous TR-FRET as a1, 12-concentration dose–response of tesaglitazar; the EC50 is of the compound; delta ratio in % of the reference compound at 10 μM (RO4899100 for PPARα, edaglitazone for PPARγ); conditions: both partners purified
[8] = molecular target: T4, GST–PPARγ fusion protein (purified …); experiment: FRET or BRET; homogeneous TR-FRET as a1, 12-concentration dose–response of RO4899100; the EC50 is of the compound; delta ratio in % of the reference compound at 10 μM (RO4899100 for PPARα, edaglitazone for PPARγ); conditions: both partners purified
[9] = molecular target: T4, GST–PPARγ fusion protein (purified …); experiment: FRET or BRET; homogeneous TR-FRET as a1, 12-concentration dose–response of pioglitazone; the EC50 is of the compound; delta ratio in % of the reference compound at 10 μM (RO4899100 for PPARα, edaglitazone for PPARγ); conditions: both partners purified
[10] = molecular target: T4, GST–PPARγ fusion protein (purified …); experiment: FRET or BRET; homogeneous TR-FRET as a1, 12-concentration dose–response of rosiglitazone; the EC50 is of the compound; delta ratio in % of the reference compound at 10 μM (RO4899100 for PPARα, edaglitazone for PPARγ); conditions: both partners purified
[11] = molecular target: T4, GST–PPARγ fusion protein (purified …); experiment: FRET or BRET; homogeneous TR-FRET as a1, 12-concentration dose–response of edaglitazone; the EC50 is of the compound; delta ratio in % of the reference compound at 10 μM (RO4899100 for PPARα, edaglitazone for PPARγ); conditions: both partners purified
[12] = molecular target: T5, GST–PPARα fusion protein (purified ligand binding domain of PPARα); experiment: FRET or BRET; homogeneous TR-FRET as a1, 12-concentration dose–response of fenofibric acid; the EC50 is of the compound; delta ratio in % of the reference compound RO4899100 at 10 μM
T5 sequence (Q07869 whole entry, species assumed, looked up): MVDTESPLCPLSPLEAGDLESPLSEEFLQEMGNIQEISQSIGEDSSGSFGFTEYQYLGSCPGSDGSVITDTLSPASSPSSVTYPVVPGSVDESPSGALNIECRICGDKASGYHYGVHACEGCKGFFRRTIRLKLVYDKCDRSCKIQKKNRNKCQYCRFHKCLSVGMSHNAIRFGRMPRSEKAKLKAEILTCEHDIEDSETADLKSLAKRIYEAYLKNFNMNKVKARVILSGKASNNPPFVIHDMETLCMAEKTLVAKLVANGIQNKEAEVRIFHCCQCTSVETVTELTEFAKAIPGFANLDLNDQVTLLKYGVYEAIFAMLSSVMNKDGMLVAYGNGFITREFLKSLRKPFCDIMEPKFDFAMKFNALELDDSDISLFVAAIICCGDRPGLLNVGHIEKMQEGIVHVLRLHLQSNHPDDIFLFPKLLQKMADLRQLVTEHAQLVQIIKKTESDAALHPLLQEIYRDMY

[13] = molecular target: T5, GST–PPARα fusion protein (purified ligand binding domain of PPARα); experiment: FRET or BRET; homogeneous TR-FRET as a1, 12-concentration dose–response of RO4899100; the EC50 is of the compound; delta ratio in % of the reference compound at 10 μM (RO4899100 for PPARα, edaglitazone for PPARγ)
[14] = molecular target: T5, GST–PPARα fusion protein (purified ligand binding domain of PPARα); experiment: FRET or BRET; homogeneous TR-FRET as a1, 12-concentration dose–response of tesaglitazar; the EC50 is of the compound; delta ratio in % of the reference compound at 10 μM (RO4899100 for PPARα, edaglitazone for PPARγ)
[15] = molecular target: T5, GST–PPARα fusion protein (purified ligand binding domain of PPARα); experiment: FRET or BRET; homogeneous TR-FRET as a1, 12-concentration dose–response of rosiglitazone; the EC50 is of the compound; delta ratio in % of the reference compound at 10 μM (RO4899100 for PPARα, edaglitazone for PPARγ)
[16] = molecular target: T5, GST–PPARα fusion protein (purified ligand binding domain of PPARα); experiment: FRET or BRET; homogeneous TR-FRET as a1, 12-concentration dose–response of pioglitazone; the EC50 is of the compound; delta ratio in % of the reference compound at 10 μM (RO4899100 for PPARα, edaglitazone for PPARγ)
[17] = molecular target: T5, GST–PPARα fusion protein (purified ligand binding domain of PPARα); experiment: FRET or BRET; homogeneous TR-FRET as a1, 12-concentration dose–response of edaglitazone; the EC50 is of the compound; delta ratio in % of the reference compound at 10 μM (RO4899100 for PPARα, edaglitazone for PPARγ)
[18] = molecular target: T5, GST–PPARα fusion protein (purified ligand binding domain of PPARα); experiment: FRET or BRET; homogeneous TR-FRET as a1, 12-concentration dose–response of aleglitazar; the EC50 is of the compound; delta ratio in % of the reference compound at 10 μM (RO4899100 for PPARα, edaglitazone for PPARγ)
[19] = molecular target: T5, GST–PPARα fusion protein (purified ligand binding domain of PPARα); experiment: FRET or BRET; homogeneous TR-FRET as a1, 12-concentration dose–response of muraglitazar; the EC50 is of the compound; delta ratio in % of the reference compound at 10 μM (RO4899100 for PPARα, edaglitazone for PPARγ)

Molecule: CC(C)(Oc1ccc(C(=O)c2ccc(Cl)cc2)cc1)C(=O)O [Fenofibric acid]
- EC50 [1]: 1060 nM
- PPARδ / EC50 [2]: 1470 nM

Molecule: Cc1nc(-c2ccc(C(F)(F)F)cc2)ccc1CN(C)C(=O)c1cccc(OC(C)(C)C(=O)O)c1 [RO4899100, 2-methyl-2-(3-{methyl-[2-methyl-6-(4-trifluoromethyl-phenyl)pyridin-3-ylmethyl]carbamoyl}phenoxy)propionic acid]
- PPARδ / EC50 [nM] [2]: 19 900 nM

Molecule: Cc1oc(-c2ccccc2)nc1CCOc1ccc(CC2SC(=O)NC2=O)c2sccc12 (stereo not drawn) [Edaglitazone]
- EC50 [3]: 1050 nM

B1: SRC1_M4 cofactor peptide (steroid receptor co-activator 1, motif 4) (peptide)
peptide: {Biotin-Ahx}-TSGPQTPQAQQKSLLQQLLTE
notes: source: synthetic peptide (Jerini or Biosynthan, Berlin)
- EC50 of farglitazar for recruitment [4]: 3.3 nM
- EC50 of aleglitazar for recruitment [5]: 3.4 nM
- EC50 of muraglitazar for recruitment [6]: 6.1 nM
- EC50 of tesaglitazar for recruitment [7]: 25.5 nM
- EC50 of RO4899100 for recruitment [8]: 1450 nM
- EC50 of pioglitazone for recruitment [9]: 222 nM
- EC50 of rosiglitazone for recruitment [10]: 23.5 nM

B2: SRC1_M2 cofactor peptide (steroid receptor co-activator 1, motif 2) (peptide)
peptide: {Biotin-Ahx}-CPSSHSSLTERHKILHRLLQEGSPS
notes: as for B1
- EC50 of farglitazar for recruitment [4]: 3.8 nM
- EC50 of edaglitazone for recruitment [11]: 9.8 nM
- EC50 of aleglitazar for recruitment [5]: 3.2 nM
- EC50 of muraglitazar for recruitment [6]: 5.7 nM
- EC50 of tesaglitazar for recruitment [7]: 24.4 nM
- EC50 of RO4899100 for recruitment [8]: 2080 nM
- EC50 of pioglitazone for recruitment [9]: 196 nM
- EC50 of rosiglitazone for recruitment [10]: 18.5 nM

B3: NCoR ID2 cofactor peptide (nuclear receptor co-repressor, interaction domain 2) (peptide)
peptide: {Biotin-Ahx}-ADPASNLGLEDIIRKALMGSF
notes: nuclear receptor co-repressor (NCoR), ID2; also called NCoR2; NcoR2; source: synthetic peptide (Jerini or Biosynthan, Berlin)
- EC50 of farglitazar for displacement [4]: 13.6 nM
- EC50 of fenofibric acid for displacement [12]: 1900 nM
- delta ratio with fenofibric acid [12]: -55%
- EC50 of RO4899100 for displacement [13]: 18.5 nM
- EC50 of edaglitazone for displacement [11]: 57.1 nM
- EC50 of tesaglitazar for displacement [14]: 646 nM
- delta ratio with tesaglitazar [14]: -54%
- EC50 of rosiglitazone for displacement [15]: 3000 nM
- delta ratio with rosiglitazone [15]: -31%
- EC50 of pioglitazone for displacement [16]: 3220 nM
- delta ratio with pioglitazone [16]: -54%
- EC50 of edaglitazone for displacement [17]: 1950 nM
- delta ratio with edaglitazone [17]: -44%
- EC50 of aleglitazar for displacement [5]: 15.3 nM
- EC50 of muraglitazar for displacement [6]: 63.4 nM
- EC50 of tesaglitazar for displacement [7]: 537 nM
- EC50 of aleglitazar for displacement [18]: 1.7 nM
- delta ratio with aleglitazar [18]: -61%
- EC50 of muraglitazar for displacement [19]: 139 nM
- delta ratio with muraglitazar [19]: -50%
- EC50 of pioglitazone for displacement [9]: 9420 nM
- EC50 of rosiglitazone for displacement [10]: 497 nM

B4: CBP cofactor peptide (cAMP responsive element binding protein (CREB)-binding protein) (peptide)
peptide: {Biotin-Ahx}-SGNLVPDAASKHKQLSELLRGGSGS
notes: as for B1
- EC50 of farglitazar for recruitment [4]: 3 nM
- EC50 of edaglitazone for recruitment [11]: 7.2 nM
- EC50 of aleglitazar for recruitment [5]: 3.3 nM
- EC50 of muraglitazar for recruitment [6]: 4.3 nM
- EC50 of tesaglitazar for recruitment [7]: 13.9 nM
- EC50 of RO4899100 for recruitment [8]: 1990 nM
- EC50 of pioglitazone for recruitment [9]: 79.1 nM
- EC50 of rosiglitazone for recruitment [10]: 10.4 nM

B5: TRAP220 cofactor peptide (thyroid hormone receptor-associated protein complex 220 kDa component, motif 2) (peptide)
peptide: {Biotin-Ahx}-GNTKNHPMLMNLLKDNPAQDF
notes: thyroid hormone receptor-associated protein complex 220 kDa component (TRAP220), motif 2, residues 637-657; also called TRAP220_M2; TRAP220 M2; source: synthetic peptide (Jerini or Biosynthan, Berlin)
- EC50 of farglitazar for recruitment [4]: 3.5 nM
- EC50 of edaglitazone for recruitment [11]: 9.5 nM
- EC50 of aleglitazar for recruitment [5]: 3.2 nM
- EC50 of muraglitazar for recruitment [6]: 6.2 nM
- EC50 of tesaglitazar for recruitment [7]: 31.6 nM
- EC50 of RO4899100 for recruitment [8]: 4410 nM
- EC50 of pioglitazone for recruitment [9]: 431 nM
- EC50 of rosiglitazone for recruitment [10]: 41.3 nM
